Source: US20230277593A1

Key:
[1] = target: HLA-A*02 on target cells (human); assay: cell-based or functional assay
[2] = target: Epidermal Growth Factor Receptor (EGFR) on target cells (human), P00533; assay: cell-based or functional assay

B1: HLA-A*02 PA2.1 scFv LIR1 inhibitor (C2162) (scFv, part only; not given: LIR-1 hinge, transmembrane and intracellular, part only)
scFv, part: QVQLVQSGAEVKKPGSSVKVSCKASGYTFTSYHIHWVRQAPGQGLEWIGWIYPGNVNTEYNEKFKGKATITADESTNTAYMELSSLRSEDTAVYYCAREEITYAMDYWGQGTLVTVSSGGGGSGGGGSGGGGSGGDIQMTQSPSTLSASVGDRVTITCRSSQSIVHSNGNTYLEWYQQKPGKAPKLLIYKVSNRFSGVPARFSGSGSGTEFTLTISSLQPDDFATYYCFQGSHVPRTFGQGTKVEVK
- Human Blocker EC50 (ng), with activator CT486; HLA-A*02 mRNA titrated into target cells [1]: 4000 ng
- Human Blocker EC50 (ng), with activator CT487; HLA-A*02 mRNA titrated into target cells [1]: 2900 ng
- Human Blocker EC50 (ng), with activator CT488; HLA-A*02 mRNA titrated into target cells [1]: 3500 ng
- Human Blocker EC50 (ng), with activator CT489; HLA-A*02 mRNA titrated into target cells [1]: 3200 ng
- selectivity ratio (humanized blocker C2162 paired with CT486) [1]: 17
- selectivity ratio (humanized blocker C2162 paired with CT487, first mention) [1]: 5
- selectivity ratio (humanized blocker C2162 paired with CT487 as printed, second mention) [1]: 5
- selectivity ratio (humanized blocker C2162 paired with CT489) [1]: 24.2

B2: HLA-A*02 PA2.1 scFv LIR1 inhibitor (C1765) (scFv, part only; not given: LIR-1 hinge, transmembrane and intracellular, part only)
scFv, part: DVLMTQTPLSLPVSLGDQASISCRSSQSIVHSNGNTYLEWYLQKPGQSPKLLIYKVSNRFSGVPDRFSGSGSGTDFTLKISRVEAEDLGVYYCFQGSHVPRTSGGGTKLEIKGGGGSGGGGSGGGGSGGQVQLQQSGPELVKPGASVRISCKASGYTFTSYHIHWVKQRPGQGLEWIGWIYPGNVNTEYNEKFKGKATLTADKSSSTAYMHLSSLTSEDSAVYFCAREEITYAMDYWGQGTSVTVSS
- Mouse Blocker EC50 (ng), with activator CT486; HLA-A*02 mRNA titrated into target cells [1]: 4700 ng
- Mouse Blocker EC50 (ng), with activator CT487; HLA-A*02 mRNA titrated into target cells [1]: 3500 ng
- Mouse Blocker EC50 (ng), with activator CT488; HLA-A*02 mRNA titrated into target cells [1]: 4700 ng
- Mouse Blocker EC50 (ng), with activator CT489; HLA-A*02 mRNA titrated into target cells [1]: 4200 ng
- selectivity ratio (mouse blocker C1765 paired with CT486) [1]: 15.7
- selectivity ratio (mouse blocker C1765 paired with CT487, first mention) [1]: 18.4
- selectivity ratio (mouse blocker C1765 paired with CT487 as printed, second mention) [1]: 21.2
- selectivity ratio (mouse blocker C1765 paired with CT489) [1]: 21.6
- shift of CAR EMAX (Jurkat NFAT-luciferase, with EGFR CAR CT479, HeLa target cells) [1]: > 5 fold

B3: CT-487 EGFR scFv CAR activator (scFv, not shown: small tags and cut ends)
scFv: QVQLVQSGAEVKKPGASVKVSCKASGYTFTSHWMHWVRQAPGQGLEWIGEFNPSNGRTNYNEKFKSKATMTVDTSTNTAYMELSSLRSEDTAVYYCASRDYDYDGRYFDYWGQGTLVTVSSGGGGSGGGGSGGGGSGGDIQMTQSPSSLSASVGDRVTITCSASSSVTYMYWYQQKPGKAPKLLIYDTSNLASGVPSRFSGSGSGTDYTFTISSLQPEDIATYYCQQWSSHIFTFGQGTKVEIK
- Activator EC50 (ng); EGFR mRNA titrated into EGFR negative target cells [2]: 3500 ng
